Test results taken from PMC11952658.

What was measured:
[1] = biological target: Cy3-labeled human histone nucleosome core particle reconstituted on the Widom 601 sequence (human); experiment: single-molecule fluorescence imaging on a tethered nucleosome (SMADNE, LUMICKS C-trap); Cy3-labeled undamaged 601 NCP ligated into 6 kb biotinylated DNA handles and tethered between optically trapped streptavidin beads, 4–5 pN tension; tagged proteins from nuclear extract; lifetimes from …; KD from koff, apparent kon and protein concentration
[2] = biological target: N-terminal tagged Halo635 LIG3α (DNA Ligase 3α, nuclear, wild type); experiment: single-molecule fluorescence colocalisation on tethered DNA (SMADNE, LUMICKS C-trap); nuclear extract diluted 1:10 in 20mM HEPES pH 7.5, 150mM NaCl, 1mM DTT, 5% glycerol, 0.5mg/ml BSA, 1mM trolox; nicked λ DNA with eight observable ligatable nicks tethered between streptavidin beads, 10 pN tension; kymographs at 10 frames per second; proteins at 0.1–2 nM
[3] = biological target: Halo 635-K421A LIG3α (catalytically dead); experiment: as above
[4] = biological target: Halo 635-ΔZnF LIG3α; experiment: as above
[5] = biological target: N-terminal tagged Halo635 LIG3α (DNA Ligase 3α, nuclear, wild type); experiment: single-molecule fluorescence colocalisation on tethered DNA (SMADNE, LUMICKS C-trap); as a1 but on calf-intestinal alkaline phosphatase (CIP) treated nicked λ DNA with 8 observable non-ligatable (5'OH) nick sites, 10 pN tension
[6] = biological target: XRCC1-YFP (UniProt P18887); experiment: single-molecule (SMADNE, optical tweezers); settings: nicks with 3'OH and 5'P; 20 mM HEPES pH 7.5, 150 mM NaCl, 1 mM DTT, 5% glycerol, 0.5 mg/ml BSA, 1 mM trolox, 25 °C; nuclear extract diluted 1:10; 10 pN (λ DNA) or 4-5 pN (NCP)
XRCC1-YFP, sequence (P18887 whole entry): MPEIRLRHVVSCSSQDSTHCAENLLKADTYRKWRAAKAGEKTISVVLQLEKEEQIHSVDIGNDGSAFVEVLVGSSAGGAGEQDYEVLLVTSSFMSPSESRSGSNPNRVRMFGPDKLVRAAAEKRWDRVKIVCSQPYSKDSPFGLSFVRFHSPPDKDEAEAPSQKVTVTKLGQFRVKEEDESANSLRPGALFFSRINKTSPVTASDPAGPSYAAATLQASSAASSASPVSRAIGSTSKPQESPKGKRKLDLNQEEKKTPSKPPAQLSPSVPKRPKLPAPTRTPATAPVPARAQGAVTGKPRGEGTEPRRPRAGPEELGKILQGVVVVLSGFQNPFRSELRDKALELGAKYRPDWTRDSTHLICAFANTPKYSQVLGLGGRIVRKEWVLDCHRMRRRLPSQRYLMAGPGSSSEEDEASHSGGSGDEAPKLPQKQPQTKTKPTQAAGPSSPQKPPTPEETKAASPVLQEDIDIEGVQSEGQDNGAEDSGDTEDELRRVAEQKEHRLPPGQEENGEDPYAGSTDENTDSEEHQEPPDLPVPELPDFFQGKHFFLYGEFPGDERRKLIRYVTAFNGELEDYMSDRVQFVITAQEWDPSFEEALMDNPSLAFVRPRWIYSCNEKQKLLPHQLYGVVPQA

[7] = test system: T1, LIG3α ZnF-BRCT internal_change, P49916-3; experiment: single-molecule (SMADNE, optical tweezers); settings: 20 mM HEPES pH 7.5, 150 mM NaCl, 1 mM DTT, 5% glycerol, 0.5 mg/ml BSA, 1 mM trolox, 25 °C, nuclear extract diluted 1:10, 10 pN (λ DNA) or 4-5 pN (NCP)
T1 sequence: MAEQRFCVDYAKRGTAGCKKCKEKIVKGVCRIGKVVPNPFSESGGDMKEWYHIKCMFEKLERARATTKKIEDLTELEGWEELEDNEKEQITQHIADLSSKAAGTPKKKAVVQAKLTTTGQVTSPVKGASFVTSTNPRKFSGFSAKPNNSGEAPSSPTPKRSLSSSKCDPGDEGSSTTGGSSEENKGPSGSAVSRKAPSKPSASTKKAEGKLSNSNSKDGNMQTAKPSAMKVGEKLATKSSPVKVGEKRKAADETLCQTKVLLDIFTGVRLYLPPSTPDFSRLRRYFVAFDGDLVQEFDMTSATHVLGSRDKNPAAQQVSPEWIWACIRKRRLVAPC

[8] = biological target: XRCC1-YFP (UniProt P18887); experiment: single-molecule (SMADNE, optical tweezers); settings: 20 mM HEPES pH 7.5, 150 mM NaCl, 1 mM DTT, 5% glycerol, 0.5 mg/ml BSA, 1 mM trolox, 25 °C, nuclear extract diluted 1:10, 10 pN (λ DNA) or 4-5 pN (NCP)
[9] = test system: T2, LIG3α ΔZnF, P49916-3; experiment: single-molecule (SMADNE, optical tweezers); settings: nicks with 3'OH and 5'P; 20 mM HEPES pH 7.5, 150 mM NaCl, 1 mM DTT, 5% glycerol, 0.5 mg/ml BSA, 1 mM trolox, 25 °C; nuclear extract diluted 1:10; 10 pN (λ DNA) or 4-5 pN (NCP)
T2 sequence: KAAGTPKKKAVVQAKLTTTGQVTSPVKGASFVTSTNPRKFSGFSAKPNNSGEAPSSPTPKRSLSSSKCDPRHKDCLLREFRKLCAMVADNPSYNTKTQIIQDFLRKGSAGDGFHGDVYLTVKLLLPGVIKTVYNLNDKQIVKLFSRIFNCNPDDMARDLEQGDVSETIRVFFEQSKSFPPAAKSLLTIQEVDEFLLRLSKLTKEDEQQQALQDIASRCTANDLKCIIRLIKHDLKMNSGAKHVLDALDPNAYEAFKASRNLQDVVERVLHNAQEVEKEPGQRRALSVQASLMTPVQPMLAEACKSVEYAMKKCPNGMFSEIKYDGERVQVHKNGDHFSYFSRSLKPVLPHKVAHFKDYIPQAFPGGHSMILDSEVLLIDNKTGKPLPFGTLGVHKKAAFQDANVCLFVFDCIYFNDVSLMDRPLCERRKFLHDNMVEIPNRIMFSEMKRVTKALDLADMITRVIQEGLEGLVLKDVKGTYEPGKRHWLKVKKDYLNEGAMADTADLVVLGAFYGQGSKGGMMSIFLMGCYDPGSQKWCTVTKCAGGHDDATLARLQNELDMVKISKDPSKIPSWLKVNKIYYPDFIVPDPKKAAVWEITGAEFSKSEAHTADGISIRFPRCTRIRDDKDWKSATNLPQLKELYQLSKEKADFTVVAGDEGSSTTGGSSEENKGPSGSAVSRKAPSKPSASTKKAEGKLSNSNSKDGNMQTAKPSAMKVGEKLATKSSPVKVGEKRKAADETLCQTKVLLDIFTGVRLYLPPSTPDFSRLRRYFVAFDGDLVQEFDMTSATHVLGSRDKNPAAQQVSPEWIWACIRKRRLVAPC

[10] = test system: LIG3α K421A; experiment: single-molecule (SMADNE, optical tweezers); settings: nicks with 3'OH and 5'P; 20 mM HEPES pH 7.5, 150 mM NaCl, 1 mM DTT, 5% glycerol, 0.5 mg/ml BSA, 1 mM trolox, 25 °C; nuclear extract diluted 1:10; 10 pN (λ DNA) or 4-5 pN (NCP)
[11] = test system: T3, LIG3α WT (nuclear), P49916-3; experiment: single-molecule (SMADNE, optical tweezers); settings: 20 mM HEPES pH 7.5, 150 mM NaCl, 1 mM DTT, 5% glycerol, 0.5 mg/ml BSA, 1 mM trolox, 25 °C, nuclear extract diluted 1:10, 10 pN (λ DNA) or 4-5 pN (NCP)
T3 sequence: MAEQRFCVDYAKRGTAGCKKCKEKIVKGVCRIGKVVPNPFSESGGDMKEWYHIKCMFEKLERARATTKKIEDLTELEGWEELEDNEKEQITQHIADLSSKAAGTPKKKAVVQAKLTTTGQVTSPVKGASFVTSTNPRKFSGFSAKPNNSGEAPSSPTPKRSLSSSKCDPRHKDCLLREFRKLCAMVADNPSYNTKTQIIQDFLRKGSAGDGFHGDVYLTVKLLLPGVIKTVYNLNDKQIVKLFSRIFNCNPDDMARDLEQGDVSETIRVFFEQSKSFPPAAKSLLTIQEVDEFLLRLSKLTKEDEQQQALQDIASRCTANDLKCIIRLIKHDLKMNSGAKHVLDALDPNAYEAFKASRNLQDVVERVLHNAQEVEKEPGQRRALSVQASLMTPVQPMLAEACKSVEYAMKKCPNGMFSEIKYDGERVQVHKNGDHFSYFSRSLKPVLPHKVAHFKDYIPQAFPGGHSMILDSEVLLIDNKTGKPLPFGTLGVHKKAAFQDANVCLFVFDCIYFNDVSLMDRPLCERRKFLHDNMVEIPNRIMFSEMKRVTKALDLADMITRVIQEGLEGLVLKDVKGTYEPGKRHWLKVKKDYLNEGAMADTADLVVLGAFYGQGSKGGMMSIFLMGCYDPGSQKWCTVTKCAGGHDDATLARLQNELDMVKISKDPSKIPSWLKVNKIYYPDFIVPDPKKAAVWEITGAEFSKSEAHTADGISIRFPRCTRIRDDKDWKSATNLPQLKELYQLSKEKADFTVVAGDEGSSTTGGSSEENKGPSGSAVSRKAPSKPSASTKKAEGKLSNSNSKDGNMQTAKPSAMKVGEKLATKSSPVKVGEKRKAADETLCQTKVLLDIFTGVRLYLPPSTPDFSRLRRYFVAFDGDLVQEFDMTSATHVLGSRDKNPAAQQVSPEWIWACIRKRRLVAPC

[12] = biological target: Cy3-labeled human histone nucleosome core particle reconstituted on the Widom 601 sequence (human); experiment: single-molecule fluorescence imaging on a tethered nucleosome (SMADNE, LUMICKS C-trap); as a3 but 601 NCP with one non-ligatable nick (3'OH and 5'OH) at SHL -4.5, 5 pN tension
[13] = biological target: Cy3-labeled human histone nucleosome core particle reconstituted on the Widom 601 sequence (human); experiment: single-molecule fluorescence imaging on a tethered nucleosome (SMADNE, LUMICKS C-trap); as a3 but 601 NCP with one non-ligatable nick (3'OH and 5'OH) at SHL 0, 5 pN tension
[14] = biological target: Cy3-labeled human histone nucleosome core particle reconstituted on the Widom 601 sequence (human); experiment: single-molecule fluorescence imaging on a tethered nucleosome (SMADNE, LUMICKS C-trap); as a3 but 601 NCP with one non-ligatable nick (3'OH and 5'OH) at SHL -2.5, 5 pN tension
[15] = 5'-phosphates removed (5'OH at nicks)

C-terminal YFP tagged XRCC1 (X-ray cross complementing protein 1), sequence (P18887 whole entry): as the sequence (P18887 whole entry) above

Question: Which results are given for “C-terminal YFP tagged XRCC1 (X-ray cross complementing protein 1) (from UniProt P18887 1-633) (natural protein)”?
Answer: Kd [1]: 0.6 nM; average lifetime of both proteins together on the DNA [2]: 0.7 s; percent of binding events colocalized [2]: 17.1%; percent of binding events colocalized [3]: 7.6%; percent of binding events colocalized [4]: 16.3%; percent of binding events colocalized [5]: 9.7%

Question: What does the source list for “nicked λ DNA (Nt.BspQI), ligatable nicks”?
Answer: Kd [6]: 4 nM; Kd ([7]; nicks with 3'OH and 5'P): 3.2 nM; Kd ([8]; nicks with 3'OH and 5'P): 1.5 nM; Kd [9]: 0.09 nM; Kd [10]: 0.4 nM; Kd ([11]; nicks with 3'OH and 5'P): 0.1 nM

Question: What does the source list for “N-terminal tagged Halo635 LIG3α (DNA Ligase 3α, nuclear, wild type) (enzyme)”?
Answer: lifetime (Tau) [12]: 17.3 s; Kd [1]: 0.03 nM; lifetime [1]: 23.6 s; lifetime (Tau) [1]: 23.7 s; lifetime (Tau) [13]: 10.2 s; lifetime (Tau) [14]: 12.2 s

Question: How did the Kd ([11]; non-ligatable nick) turn out when single non-ligatable nick, no NCP was run?
Answer: 2.5 nM

Question: Which Kd ([7]; 5'-phosphate on both strands) does the source give for “CAACTGAGACCATGTACCCAGTTCGAATCGGATGTATATATCTGACACGTGCCTGGAGACTAGGGAGTAATCCCCTTGGCGGTTAAAACGCGGGGGACAGCGCGTACGTGCGTTTAAGCGGTGCTAGAGCTGTCTACGACCAATTGAGCGGCCTCGGCACCGGGATTCTCGATAACTCAGCAATAGTGGGTCTCA / ACCATGAGACCCACTATTGCTGAGTTATCGAGAATCCCGGTGCCGAGGCCGCTCAATTGGTCGTAGACAGCTCTAGCACCGCTTAAACGCACGTACGCGCTGTCCCCCGCGTTTTAACCGCCAAGGGGATTACTCCCTAGTCTCCAGGCACGTGTCAGATATATACATCCGATTCGAACTGGGTACATGGTCTCA [undamaged 601 NCP]” here?
Answer: 1.1 nM

Question: What about the Kd ([8]; 5'-phosphate on both strands) of the same substance?
Answer: 0.6 nM

Question: What about the Kd ([11]; 5'-phosphate on both strands) of the same substance?
Answer: 0.03 nM

Question: Which Kd [8, 15] does the source give for “CIP-treated nicked λ DNA, non-ligatable nicks” here?
Answer: 17 nM

Question: What about the Kd [11, 15] of the same substance?
Answer: 1.64 nM
